Measurements published in US20230265215A1 (OMEROS, published 2023).
Numbering of substitutions follows the chain as printed. “And” between values parts separate entries of the source, which are not always exact repeats. Equal entries are not always repeated. Values belong to the binder of their own block, whether it stands above or below them.

How the values were obtained:
[1] = molecular target: T1, human MASP-2 (endogenous, in normal human serum) (human, UniProt O00187 16-686); test: cell-based or functional assay
T1 sequence (O00187 16-686 limits assumed): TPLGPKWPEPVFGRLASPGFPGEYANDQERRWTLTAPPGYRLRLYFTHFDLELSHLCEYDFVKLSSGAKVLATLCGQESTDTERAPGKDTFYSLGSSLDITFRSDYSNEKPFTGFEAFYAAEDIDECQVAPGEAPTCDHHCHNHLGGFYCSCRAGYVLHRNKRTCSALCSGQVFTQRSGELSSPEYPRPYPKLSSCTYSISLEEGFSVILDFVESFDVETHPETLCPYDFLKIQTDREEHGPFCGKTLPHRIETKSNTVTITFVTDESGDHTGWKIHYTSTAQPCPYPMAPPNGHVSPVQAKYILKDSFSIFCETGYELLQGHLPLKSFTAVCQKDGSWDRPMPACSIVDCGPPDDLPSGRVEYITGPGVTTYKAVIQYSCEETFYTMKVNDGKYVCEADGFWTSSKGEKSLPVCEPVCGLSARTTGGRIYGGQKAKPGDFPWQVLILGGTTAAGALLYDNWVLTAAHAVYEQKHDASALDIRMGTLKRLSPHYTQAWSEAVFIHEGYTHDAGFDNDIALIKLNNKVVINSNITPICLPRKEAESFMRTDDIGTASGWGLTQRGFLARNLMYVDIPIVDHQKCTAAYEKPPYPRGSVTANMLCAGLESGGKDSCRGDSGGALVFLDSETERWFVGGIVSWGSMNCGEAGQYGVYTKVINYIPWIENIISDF

[2] = molecular target: cynomolgus monkey MASP-2 (endogenous, in cynomolgus monkey serum) (cynomolgus monkey, UniProt O00187 16-686 (human entry), limits assumed); test: cell-based or functional assay
Sequence of cynomolgus monkey MASP-2 (endogenous, in cynomolgus monkey serum) (O00187 other isoform, or with tags, fused parts or gaps limits assumed): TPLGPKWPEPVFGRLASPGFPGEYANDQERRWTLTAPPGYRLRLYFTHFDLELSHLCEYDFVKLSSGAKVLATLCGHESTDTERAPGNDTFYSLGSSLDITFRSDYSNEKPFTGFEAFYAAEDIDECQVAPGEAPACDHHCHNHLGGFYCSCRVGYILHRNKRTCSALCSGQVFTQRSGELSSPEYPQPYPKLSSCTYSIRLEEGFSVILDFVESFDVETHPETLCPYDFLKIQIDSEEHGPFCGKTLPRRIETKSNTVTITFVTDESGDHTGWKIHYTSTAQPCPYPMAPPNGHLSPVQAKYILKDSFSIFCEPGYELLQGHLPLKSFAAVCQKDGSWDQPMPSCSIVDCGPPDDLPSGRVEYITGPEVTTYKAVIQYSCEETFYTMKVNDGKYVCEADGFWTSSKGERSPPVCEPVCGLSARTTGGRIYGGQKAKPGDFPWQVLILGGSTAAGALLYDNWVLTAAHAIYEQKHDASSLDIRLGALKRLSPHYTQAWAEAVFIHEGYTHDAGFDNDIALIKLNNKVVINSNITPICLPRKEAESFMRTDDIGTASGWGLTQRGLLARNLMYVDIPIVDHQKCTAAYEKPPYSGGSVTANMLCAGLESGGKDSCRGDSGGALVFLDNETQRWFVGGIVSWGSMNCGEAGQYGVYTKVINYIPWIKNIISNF

[3] = molecular target: T1, human MASP-2 (endogenous, in normal …); test: cell-based or functional assay; remark: listed apart in the source
[4] = molecular target: mouse MASP-2 (endogenous, in mouse serum or hirudin plasma) (mouse, UniProt Q91WP0 20-685); test: cell-based or functional assay
Sequence of mouse MASP-2 (endogenous, in mouse serum or hirudin plasma) (Q91WP0 20-685 limits assumed): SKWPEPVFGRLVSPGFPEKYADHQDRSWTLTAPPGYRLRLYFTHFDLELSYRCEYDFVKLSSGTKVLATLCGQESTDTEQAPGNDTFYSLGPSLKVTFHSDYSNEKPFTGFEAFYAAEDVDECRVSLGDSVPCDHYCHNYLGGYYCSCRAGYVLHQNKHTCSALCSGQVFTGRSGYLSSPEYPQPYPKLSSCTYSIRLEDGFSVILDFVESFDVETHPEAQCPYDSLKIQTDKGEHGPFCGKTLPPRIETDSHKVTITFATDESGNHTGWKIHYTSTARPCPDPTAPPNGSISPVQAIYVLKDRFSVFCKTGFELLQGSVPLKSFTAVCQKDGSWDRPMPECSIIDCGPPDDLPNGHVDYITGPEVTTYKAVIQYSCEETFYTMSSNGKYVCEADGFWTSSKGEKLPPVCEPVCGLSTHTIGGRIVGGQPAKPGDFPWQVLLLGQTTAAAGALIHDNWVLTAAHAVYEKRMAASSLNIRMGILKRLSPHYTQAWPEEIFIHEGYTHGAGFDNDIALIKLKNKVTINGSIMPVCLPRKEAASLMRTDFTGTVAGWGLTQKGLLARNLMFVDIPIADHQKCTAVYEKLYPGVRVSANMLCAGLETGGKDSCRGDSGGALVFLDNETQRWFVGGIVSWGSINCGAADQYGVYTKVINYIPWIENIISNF

[5] = molecular target: rat MASP-2 (endogenous, in rat serum) (rat, UniProt Q9JJS8 20-685); test: cell-based or functional assay
Sequence of rat MASP-2 (endogenous, in rat serum) (Q9JJS8 other isoform, or with tags, fused parts or gaps limits assumed): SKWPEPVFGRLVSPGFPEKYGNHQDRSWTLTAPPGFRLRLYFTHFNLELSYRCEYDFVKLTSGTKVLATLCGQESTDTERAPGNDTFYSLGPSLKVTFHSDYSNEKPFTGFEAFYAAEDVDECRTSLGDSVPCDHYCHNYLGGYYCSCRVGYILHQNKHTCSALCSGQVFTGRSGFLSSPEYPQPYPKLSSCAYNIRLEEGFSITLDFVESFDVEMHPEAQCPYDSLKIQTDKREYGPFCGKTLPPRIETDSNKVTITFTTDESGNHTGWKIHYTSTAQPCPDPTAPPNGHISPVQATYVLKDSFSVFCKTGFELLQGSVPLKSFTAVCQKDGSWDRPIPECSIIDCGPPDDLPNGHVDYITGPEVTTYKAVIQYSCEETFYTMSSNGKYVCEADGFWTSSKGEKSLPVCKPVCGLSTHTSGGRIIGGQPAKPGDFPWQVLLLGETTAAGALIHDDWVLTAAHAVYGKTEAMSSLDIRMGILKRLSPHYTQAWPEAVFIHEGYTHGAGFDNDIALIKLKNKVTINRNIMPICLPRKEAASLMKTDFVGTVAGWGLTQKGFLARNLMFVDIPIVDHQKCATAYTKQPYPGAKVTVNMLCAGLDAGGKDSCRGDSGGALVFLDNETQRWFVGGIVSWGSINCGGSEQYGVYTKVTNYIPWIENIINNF

[6] = molecular target: T2, human MASP-2 (CCP1-CCP2-SP fragment) (human, UniProt O00187 287-686, limits assumed); test: solid phase ELISA, plate coated with human MASP-2 CCP1-CCP2-SP fragment
T2 construct: also called human MASP-2 (CCP1/2/SP fragment); hMASP-2-CCP1-CCP2-SP
T2 sequence (O00187 287-686 limits assumed): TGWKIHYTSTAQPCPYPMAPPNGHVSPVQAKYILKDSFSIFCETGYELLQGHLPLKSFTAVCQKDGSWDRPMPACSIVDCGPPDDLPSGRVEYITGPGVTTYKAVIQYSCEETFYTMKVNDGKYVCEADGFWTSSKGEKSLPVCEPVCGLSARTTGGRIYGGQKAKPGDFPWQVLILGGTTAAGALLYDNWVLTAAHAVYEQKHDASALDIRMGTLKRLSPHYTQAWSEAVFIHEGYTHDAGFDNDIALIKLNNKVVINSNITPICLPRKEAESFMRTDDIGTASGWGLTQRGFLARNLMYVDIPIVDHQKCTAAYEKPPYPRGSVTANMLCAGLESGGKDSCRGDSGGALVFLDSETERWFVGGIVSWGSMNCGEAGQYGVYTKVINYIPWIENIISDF
Experimental: To measure binding of the 26 purified recombinant MASP-2 antibodies to human MASP-2 (CCP1-CCP2-SP fragment), a solid phase ELISA assay was carried out as follows. A MaxiSorp ELISA plate was coated with human MASP-2 (CCP1/2/SP fragment) at 1.0 μg/mL in carbonate/bi-carbonate buffer overnight at 4° C. […] The plate was washed (PBS-T, 0.05%) and a detection antibody was added (goat anti-human IgG-HRP) for one hour at room temperature. After another wash (PBS-T, 0.05%) the plate was developed (5 minutes) with OPT EIA TMB (BD Biosciences #555214). Absorbance reading at A450 was measured using the Spectramax M5e plate reader.
A solid phase ELISA assay was carried out to measure binding of the three selected MASP-2 inhibitory antibodies to human MASP-2 (CCP1-CCP2-SP fragment), as described in Example 1.

[7] = molecular target: T1, human MASP-2 (endogenous, in normal …); test: cell-based or functional assay; remark: listed apart in the source
[8] = molecular target: T1, human MASP-2 (endogenous, in normal …); test: cell-based or functional assay; remark: listed apart in the source

- Human C3b deposition, 1% human serum, IC50 [1]: 0.09 nM
B1: OMS854 (monoclonal antibody OMS852 4PA-1) (antibody, V domains shown)
VH: QVQLVQSGAEVKKPGASVKVSCKASGYTFTNYWMHWLRQAPGQGLEWIGDIDASDSETHYIEKFKDRATLTIDKSSSTAYMELSSLRSEDTAVYYCARGDITTTLRYFDVWGQGTLVTVSS
VL: DIQLTQSPSSLSASVGDRVTITCSASSSVRYMYWYQQKPGKAPKLLIYDTSNLASGVPSRFSGSGSGTDNTLTISSLQPEDFATYYCQQWSSYPLTFGQGTKVEIKR

- C3b deposition on mannan, 0.25% cynomolgus monkey serum, IC50 [2]: 18.9 nM
- C3b deposition on mannan, 1.0% human serum, IC50 [3]: 0.13 nM
- C3b deposition on mannan, 1.0% mouse serum, IC50 [4]: > 100 nM
- C3b deposition on mannan, 0.3% rat serum, IC50 [5]: 0.6 nM
- EC50 [6]: 0.41 nM
- C4b deposition on mannan, 50% human serum, IC50 [7]: 0.09 µg/mL
B2: mAb OMS870 (mouse-human chimeric, mouse parental variable regions) (antibody, human IgG4 S228P, kappa, V domains shown)
VH: EVQLQQPGTELVKPGASVKLSCKASGYTFTSYWMHWVKQRPGQGLEWIGNINPSNGGTNCNEKFKNKATMTVDKSSSTAYMQLSSLTSEDSAVYYCARWAYDAMDYWGQGTSVTVSS
VL: DIVLTQSPASLAVSLGQRATISCRASESVDSYGNSFMHWYQQKPGQAPKLLIYFASNLESGVPARFSGSGSRTDFTLTIDPVEADDAATYFCQQSNEDPLTFGAGTKLELKR

- Human C3b deposition, IC50 [8]: 0.09 nM
- Human C3b deposition, 1% human serum, IC50 [1]: 0.15 nM and 0.12 nM
- C3b deposition on mannan, 0.25% cynomolgus monkey serum, IC50 [2]: 0.4 nM
- C3b deposition on mannan, 1.0% human serum, IC50 [3]: 0.15 nM
- C3b deposition on mannan, 1.0% mouse serum, IC50 [4]: 0.5 nM
- C3b deposition on mannan, 0.3% rat serum, IC50 [5]: 0.05 nM
- EC50 [6]: 0.25 nM
- C4b deposition on mannan, 50% human serum, IC50 [7]: 0.07 µg/mL
B3: mAb OMS850 (mouse-human chimeric, mouse parental variable regions) (antibody, human IgG4 S228P, kappa, V domains shown)
VH: QVQLQQPGAELVRPGSSVRLSCKASGYTFTNYWMHWLKQRPIQGLEWIGDIDPSDSETHYIEKFKDKATLTIDKSSSTAYMHLSSLTSEDSAIYYCARGDITTTLRYFDVWGTGTTVTVSS
VL: QIVLTQSPVIMSASPGEKVTMTCSASSSVRYMYWYQQKPGSSPRLLIYDTSNLASGVPVRFSGSGSGTSNSLTISRMEAEDAATYYCQQWSSYPLTFGAGTKLELKR
notes: also called OMS850 parent

- Human C3b deposition, IC50 [8]: 0.53 nM
B4: OMS850_VH_P53/N (antibody, IgG4, V domains shown)
VH: B3 VH with P53N
VL: B3 VL

- Human C3b deposition, IC50 [8]: 0.16 nM
B5: OMS850_VH_P53/D (antibody, IgG4, V domains shown)
VH: B3 VH with P53D
VL: B3 VL

- Human C3b deposition, IC50 [8]: 0.07 nM
B6: OMS850_VH_P53/A (antibody, IgG4, V domains shown)
VH: B3 VH with P53A
VL: B3 VL

- C3b deposition on mannan, 0.25% cynomolgus monkey serum, IC50 [2]: 26.2 nM
- C3b deposition on mannan, 1.0% human serum, IC50 [3]: 0.6 nM
- C3b deposition on mannan, 1.0% mouse serum, IC50 [4]: 5.8 nM
- C3b deposition on mannan, 0.3% rat serum, IC50 [5]: 0.3 nM
- EC50 [6]: 0.23 nM
- C4b deposition on mannan, 50% human serum, IC50 [7]: 0.1 µg/mL
B7: mAb OMS860 (mouse-human chimeric, mouse parental variable regions) (antibody, human IgG4 S228P, kappa, V domains shown)
VH: B3 VH with R19K, L37V, K38R, T58I, H59Y, I61N, E62Q, I72V, I93V
VL: B3 VL with M21I, R30S
